B1: Serine/threonine-protein kinase RIM15 (Saccharomyces cerevisiae), P43565 (parent)
chain: MFNRSNTAGGSQAMKEGLGINKLSPISSNSNPSSLTSSNYEKYLQLATEKNPCMILELELDGKVRYGSPQWNTITGVADDSGSSPTYIADLILGSDQDKGVFQKATDMLLMNDDTSCTITFKIKAADYEGSAGCDDESTITTLEARGILIRDGHTQLPSHTMWIVKPRTNDWSDFYANEDAQDDMVIQLSDNCDDIDIQLPEEFAKTLGFGAKIFVQYLKRIRLEMIIDEFNLPLPKMELCRVCENFVPVWWLETHSQSCVCEHRTESLIQLLHDNLLEQQAILANFTKDSEYKGSQIQVRSNNFLNQVLDSLRELCQDAIDINPSEMVPDLYHSLSTFPQDNGNNNNNNNNNNNNNNALLDQFPIQKDTVSLNSYFQFSPRTNHNIQNVTSWQSRFFLNDDQDPGLALLIHDTLDLARKKVDAVLRLDNAMTYSLKIKNEVNNYVVQLIREQIEINKHAILTHPMNLRSSSIFHSPLPQIHSQQPEAENLIYSSSTPLQVQHDQCASFEAPSKSHLEPIPFPVSSIEETPTANDIRHPSPLPRSCSNTVMKLPTPRRKLDSNGLFSDAYLNADIIPNPSIESTISIDRDNNTNSRGSSMKQYGIGEATDSRTSNSERPSSSSSRLGIRSRSITPRQKIEYSHVDNDDRTNEMLSRDKDSLQPQPSVDTTITSSTQATTTGTKTNSNNSTNSVLPKLMTSISLTPRRGSPSFGNLASHSMQQTNSFKLIHDKSPISSPFTFSKDFLTPEQHPSNIARTDSINNAMLTSPNMPLSPLLLATNQTVKSPTPSIKDYDILKPISKGAYGSVYLARKKLTGDYFAIKVLRKSDMIAKNQVTNVKSERAIMMVQSDKPYVARLFASFQNKDNLFLVMEYLPGGDLATLIKMMGYLPDQWAKQYLTEIVVGVNDMHQNGIIHHDLKPENLLIDNAGHVKLTDFGLSRAGLIRRHKFVPHKSSLSISSTLPIDNPANNFTMNNNNSNHSQLSTPDSFTSDHKQYNRSKKSSLGQQYEHSEYSSTSNSHSMTPTPSTNTVVYPSYYRGKDRSHGSSNIDLPASLRRSESQLSFSLLDISRSSTPPLANPTNSNANNIMRRKSLTENKSFSNDLLSSDAIAATNTNINSNNNISLSPAPSDLALFYPDDSKQNKKFFGTPDYLAPETIEGKGEDNKQCDWWSVGCIFFELLLGYPPFHAETPDAVFKKILSGVIQWPEFKNEEEEREFLTPEAKDLIEKLLVVDPAKRLGAKGIQEIKDHPYFKNVDWDHVYDEEASFVPTIDNPEDTDYFDLRGAELQDFGDDIENDNANILFGKHGINTDVSELSAANLSPPLNHKNILSRKLSMSNTTNRSSNNSNSSVHDFGAHTPVNKLSIASVLESVPQETGYITPNGTGTTTTSAKNSPNLKNLSLAIPPHMRDRRSSKLNDSQTEFGSFNFRNLSALDKANKDAINRLKSEHFSEQPGVHRRTSSASLMGSSSDGSVSTPGSNASNTTSGGKLKIHKPTISGSPSTFGTFPKTFLRSDSFSTRSYSPERSISIDSSTLSRKGSIIGDNQQTTANSSDSPTMTKFKSPLSPANTTTVSSYFSRQRVLSKSFSQRTNSSDLSAEESDRLQAISRVNSLRNRRRSGRKSSSTSEIGYHMDVLVCEPIPIHRYRVTKDLENLGCTVVSVGAGDELVSRATSGVSFDLIMTALKLPKLGAIDIVQLLKQTNGANSTTPIVAITNYFQEAATSRVFDDVLEKPVKLDELKKLVAKYALKKSQEDEEHTILSDSDETH
partner: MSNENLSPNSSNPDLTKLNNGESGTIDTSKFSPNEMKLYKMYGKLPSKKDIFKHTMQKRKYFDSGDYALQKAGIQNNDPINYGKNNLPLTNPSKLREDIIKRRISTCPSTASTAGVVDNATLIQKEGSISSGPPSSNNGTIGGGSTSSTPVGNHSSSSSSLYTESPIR
B2: Serine/threonine-protein kinase RIM15 (Saccharomyces cerevisiae), P43565 (parent)
chain: B1 chain
B3: Serine/threonine-protein kinase RIM15 (Saccharomyces cerevisiae), P43565 (parent)
chain: B1 chain
partner: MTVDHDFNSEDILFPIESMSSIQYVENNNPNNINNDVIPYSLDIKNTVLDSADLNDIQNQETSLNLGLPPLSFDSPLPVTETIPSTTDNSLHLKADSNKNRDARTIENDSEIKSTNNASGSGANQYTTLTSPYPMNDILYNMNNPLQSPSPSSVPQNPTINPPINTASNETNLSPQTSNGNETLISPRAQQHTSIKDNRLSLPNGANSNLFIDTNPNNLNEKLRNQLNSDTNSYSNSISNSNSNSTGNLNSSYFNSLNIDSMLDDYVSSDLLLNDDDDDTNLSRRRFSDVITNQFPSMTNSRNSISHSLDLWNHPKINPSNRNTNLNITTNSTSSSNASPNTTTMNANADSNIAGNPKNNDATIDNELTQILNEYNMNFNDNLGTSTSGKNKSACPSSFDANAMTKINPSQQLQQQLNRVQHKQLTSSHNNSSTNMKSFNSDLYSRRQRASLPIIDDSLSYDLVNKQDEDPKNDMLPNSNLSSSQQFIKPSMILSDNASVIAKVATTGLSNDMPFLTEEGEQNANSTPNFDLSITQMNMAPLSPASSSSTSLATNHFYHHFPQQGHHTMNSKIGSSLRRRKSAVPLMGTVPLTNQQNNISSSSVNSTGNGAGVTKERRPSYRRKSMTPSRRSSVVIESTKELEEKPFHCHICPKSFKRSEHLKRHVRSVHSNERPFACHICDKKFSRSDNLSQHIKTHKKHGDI

Variants of: B1
Settings: with igo1_yeast IGO1, P53897

Variant | effect of a mutation on the interaction
K823Y;C1176Y | disrupting interaction

Variants of: B2
Settings: with hsf_yeast HSF1, P10961
Chain of hsf_yeast HSF1, P10961 (P10961 whole entry): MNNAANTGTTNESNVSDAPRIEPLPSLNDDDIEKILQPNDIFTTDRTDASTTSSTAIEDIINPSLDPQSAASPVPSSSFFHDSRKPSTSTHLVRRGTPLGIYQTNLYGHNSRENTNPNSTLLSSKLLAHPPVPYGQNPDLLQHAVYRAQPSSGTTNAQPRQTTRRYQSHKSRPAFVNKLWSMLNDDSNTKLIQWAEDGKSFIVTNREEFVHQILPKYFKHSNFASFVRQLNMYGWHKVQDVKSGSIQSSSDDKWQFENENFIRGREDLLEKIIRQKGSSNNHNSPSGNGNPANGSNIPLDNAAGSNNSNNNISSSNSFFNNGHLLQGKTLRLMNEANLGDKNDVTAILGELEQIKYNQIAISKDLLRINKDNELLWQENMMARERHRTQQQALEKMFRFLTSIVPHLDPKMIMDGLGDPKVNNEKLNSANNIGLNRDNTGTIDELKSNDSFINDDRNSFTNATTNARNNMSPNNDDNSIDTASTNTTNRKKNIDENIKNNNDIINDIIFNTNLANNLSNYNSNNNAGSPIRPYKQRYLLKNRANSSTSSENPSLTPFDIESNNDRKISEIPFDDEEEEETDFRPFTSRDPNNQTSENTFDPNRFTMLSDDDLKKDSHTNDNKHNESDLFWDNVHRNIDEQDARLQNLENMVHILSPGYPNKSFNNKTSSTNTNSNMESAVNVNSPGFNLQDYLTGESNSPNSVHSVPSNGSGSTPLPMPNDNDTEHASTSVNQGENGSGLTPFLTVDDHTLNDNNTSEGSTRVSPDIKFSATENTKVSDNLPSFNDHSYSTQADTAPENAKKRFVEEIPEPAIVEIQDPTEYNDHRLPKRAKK

Variant | effect of a mutation on the interaction
K823Y;C1176Y | disrupting interaction

Variants of: B3
Settings: with msn2_yeast MSN2, P33748

Variant | effect of a mutation on the interaction
K823Y;C1176Y | disrupting interaction
